Source: patent US9187525B2, “Methods of treating ophthalmic diseases using NPR-B agonists” (Shire Orphan Therapies GmbH, dated 2015)
Numbered stars: 1 amine (or outer) side, 2 acyl side, 3 side chain; on linkers, the order of the positions; unused ones are H or OH. Square brackets hold non-standard residues; d marks the D form. Ends that are not written are not given here. * marks the point of attachment. Nbhp = rac-(2,3-dihydroxy-propylamino)-acetic acid, O=C(CN(CC(O)CO[*:3])[*:1])[*:2]; Nhpr = (3-hydroxy-propylamino)acetic acid, O=C(CN(CCCO[*:3])[*:1])[*:2]; Gluc‑Aoa = (2,3,4,5,6-pentahydroxyhexylidenaminooxy)-acetic acid; Paa = piperazin-1-yl-acetic acid, O=C(CN1CCN([*:1])CC1)[*:2]; Sni = (S)-nipecotic acid, O=C([C@H]1CCCN([*:1])C1)[*:2]; Hyp = O=C(O)[C@@H]1C[C@@H](O)CN1; d(β3hL) = CC(C)C[C@@H](N)CC(=O)O; dAoc(2) = CCCCCC[C@@H](N)C(=O)O; 2Thi = N[C@@H](Cc1cccs1)C(=O)O; AR‑314‑102 = not defined here; Aoc(2) = CCCCCC[C@H](N)C(=O)O; NMeL = CN[C@@H](CC(C)C)C(=O)O; AR‑314‑87 = not defined here; Chg = N[C@H](C(=O)O)C1CCCCC1; d(hSer) = N[C@H](CCO)C(=O)O; lys(Me2) = not defined here; orn(Me2) = not defined here; dDab = NCC[C@@H](N)C(=O)O; Nle = CCCC[C@H](N)C(=O)O; Octanoyl = CCCCCCCC(=O)*; 1913 = not defined here; Che = not defined here; Hexanoyl = CCCCCC(=O)*; leu = not defined here; Occ = octanoic acid

T1: natriuretic peptide receptor-B (human)
T1 chain: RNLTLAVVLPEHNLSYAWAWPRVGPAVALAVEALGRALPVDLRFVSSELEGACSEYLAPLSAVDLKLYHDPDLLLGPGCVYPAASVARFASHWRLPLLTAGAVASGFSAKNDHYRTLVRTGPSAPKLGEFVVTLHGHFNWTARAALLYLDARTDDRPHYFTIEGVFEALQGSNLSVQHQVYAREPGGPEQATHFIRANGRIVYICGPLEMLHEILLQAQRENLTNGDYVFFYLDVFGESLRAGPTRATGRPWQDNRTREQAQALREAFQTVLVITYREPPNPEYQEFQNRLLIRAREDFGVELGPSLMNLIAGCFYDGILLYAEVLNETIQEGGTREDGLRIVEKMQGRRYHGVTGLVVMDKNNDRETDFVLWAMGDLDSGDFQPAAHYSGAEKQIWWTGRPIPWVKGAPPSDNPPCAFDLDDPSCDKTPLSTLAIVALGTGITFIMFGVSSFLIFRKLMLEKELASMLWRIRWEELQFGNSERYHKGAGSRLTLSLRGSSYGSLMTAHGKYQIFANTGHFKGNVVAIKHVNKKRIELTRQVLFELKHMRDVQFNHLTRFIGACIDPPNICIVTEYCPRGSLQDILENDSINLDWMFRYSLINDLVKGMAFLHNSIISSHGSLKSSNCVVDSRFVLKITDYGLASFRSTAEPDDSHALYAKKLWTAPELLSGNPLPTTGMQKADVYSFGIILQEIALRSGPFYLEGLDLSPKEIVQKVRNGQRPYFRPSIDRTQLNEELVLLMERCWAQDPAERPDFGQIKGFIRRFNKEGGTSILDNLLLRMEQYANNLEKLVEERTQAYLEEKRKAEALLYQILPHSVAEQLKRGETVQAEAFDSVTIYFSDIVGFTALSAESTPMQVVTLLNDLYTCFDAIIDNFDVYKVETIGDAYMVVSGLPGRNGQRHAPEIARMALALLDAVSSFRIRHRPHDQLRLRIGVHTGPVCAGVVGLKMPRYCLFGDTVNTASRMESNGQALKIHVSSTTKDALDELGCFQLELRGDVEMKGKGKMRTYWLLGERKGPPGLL

B1: JAL-1758 (peptide)
peptide: [Occ][Sni]FLL[Hyp][NMeL][2Thi]R[Che]
modifications: not fully specified (residue 4); printed as Occ-Sni-Phe-leu-Leu-Hyp-Nml-Thi-Arg-Che; reading uncertain
B2: JAL-1804 (peptide)
peptide: 1913-[Aoc(2)][Sni]FLL[Hyp][NMeL]DRI-NH2
modifications: not fully specified (some residues); printed as (1913)-Hgl-Sni-Phe-leu-Leu-Hyp-Nml-Asp-Arg-Ile-NH2; reading uncertain
B3: JAL-1778 (peptide)
peptide: Octanoyl-[Sni]F[orn(Me2)]L[Hyp][NMeL]VR[Che]
modifications: reading uncertain; also: printed as Occ-Sni-Phe-orn(Me2)-Leu-Hyp-Nml-Val-Arg-Che
B4: JAL-1777 (peptide)
peptide: Octanoyl-[Sni]F[lys(Me2)]L[Hyp][NMeL]DR[Che]
modifications: reading uncertain; also: printed as Occ-Sni-Phe-lys(Me2)-Leu-Hyp-Nml-Asp-Arg-Che
B5: JAL-1756 (peptide)
peptide: [Occ][Sni]FLL[Hyp][NMeL][d(β3hL)]R[Che]
modifications: not fully specified (residue 4); printed as Occ-Sni-Phe-leu-Leu-Hyp-Nml-Ble-Arg-Che; reading uncertain
B6: JAL-1803 (peptide)
peptide: {Gluc‑Aoa}-[dAoc(2)][Sni]FLL[Hyp][NMeL]DRI-NH2
modifications: not fully specified (some residues); printed as Gluc-Aoa-hgl-Sni-Phe-leu-Leu-Hyp-Nml-Asp-Arg-Ile-NH2
B7: JAL-1782 (peptide)
peptide: Octanoyl-[Sni]F[orn(Me2)]L[Hyp][NMeL]VRI-NH2
modifications: reading uncertain; also: printed as Occ-Sni-Phe-orn(Me2)-Leu-Hyp-Nml-Val-Arg-Ile-NH2
B8: JAL-1781 (peptide)
peptide: Octanoyl-[Sni]F[lys(Me2)]L[Hyp][NMeL]DRI-NH2
modifications: reading uncertain; also: printed as Occ-Sni-Phe-lys(Me2)-Leu-Hyp-Nml-Asp-Arg-Ile-NH2
B9: JAL-1755 (peptide)
peptide: [Occ][Sni]FLL[Hyp][NMeL][Nle]R[Che]
modifications: not fully specified (residue 4); printed as Occ-Sni-Phe-leu-Leu-Hyp-Nml-Nle-Arg-Che; reading uncertain
B10: JAL-1776 (peptide)
peptide: Octanoyl-[Sni]F[orn(Me2)]L[Hyp][NMeL]DR[Che]
modifications: reading uncertain; also: printed as Occ-Sni-Phe-orn(Me2)-Leu-Hyp-Nml-Asp-Arg-Che
B11: JAL-1798 (peptide)
peptide: Octanoyl-[Nhpr]FLL[Hyp][NMeL]DRI-NH2
modifications: not fully specified (some residues); printed as Occ-Nhpr-Phe-leu-Leu-Hyp-Nml-Asp-Arg-Ile-NH2
B12: JAL-1779 (peptide)
peptide: Octanoyl-[Sni]F[lys(Me2)]L[Hyp][NMeL]VR[Che]
modifications: reading uncertain; also: printed as Occ-Sni-Phe-lys(Me2)-Leu-Hyp-Nml-Val-Arg-Che
B13: JAL-1801 (peptide)
peptide: Octanoyl-[d(hSer)]FLL[Hyp][NMeL]DRI-NH2
modifications: not fully specified (some residues); printed as Occ-hse-Phe-leu-Leu-Hyp-Nml-Asp-Arg-Ile-NH2
B14: JAL-1802 (peptide)
peptide: {Gluc‑Aoa}-[Aoc(2)][Sni]FLL[Hyp][NMeL]DRI-NH2
modifications: not fully specified (some residues); printed as Gluc-Aoa-Hgl-Sni-Phe-leu-Leu-Hyp-Nml-Asp-Arg-Ile-NH2
B15: JAL-1800 (peptide)
peptide: Octanoyl-SFLL[Hyp][NMeL]DRI-NH2
modifications: not fully specified (some residues); printed as Occ-ser-Phe-leu-Leu-Hyp-Nml-Asp-Arg-Ile-NH2
B16: JAL-1774 (peptide)
peptide: [AR‑314‑102][leu]L[Hyp][NMeL]DRI-NH2
modifications: reading uncertain; also: printed as (AR-314-102)-leu-Leu-Hyp-Nml-Asp-Arg-Ile-NH2
B17: JAL-1799 (peptide)
peptide: Octanoyl-[Nbhp]FLL[Hyp][NMeL]DRI-NH2
modifications: not fully specified (some residues); printed as Occ-Nbhp-Phe-leu-Leu-Hyp-Nml-Asp-Arg-Ile-NH2
B18: JAL-1784 (peptide)
peptide: Octanoyl-[Sni]F[dDab](Me2)L[Hyp][NMeL]VR[Che]
modifications: reading uncertain; also: printed as Occ-Sni-Phe-dab(Me2)-Leu-Hyp-Nml-Val-Arg-Che

Target: T1, natriuretic peptide receptor-B
Experiment: cell-based or functional assay

| EC50 group, cGMP in GTM-3 cells | Binder |
| --- | --- |
| ≤ 15 µM | Octanoyl-[Sni]F[dK](Me2)L[Hyp][NMeL]VRI-NH2 [JAL-1783] |
| ≤ 15 µM | B1 |
| ≤ 5 µM | B2 |
| ≤ 5 µM | B3 |
| ≤ 1 µM | B4 |
| ≤ 5 µM | B5 |
| ≤ 1 µM | B6 |
| ≤ 15 µM | Hexanoyl-[dA][dA]F[Paa]KLDRI-NH2 [JAL-0731] |
| ≤ 5 µM | Octanoyl-[Sni]F[dDab](Me2)L[Hyp][NMeL]VRI-NH2 [JAL-1786] |
| ≤ 1 µM | [AR‑314‑87][leu]L[Hyp][NMeL]DRI-NH2 (reading uncertain; also: printed as (AR-314-87)-leu-Leu-Hyp-Nml-Asp-Arg-Ile-NH2) [JAL-1765-2] |
| ≤ 15 µM | Octanoyl-[Sni]F[leu]L[Hyp][NMeL][Chg]R[Che] (reading uncertain; also: printed as Occ-Sni-Phe-leu-Leu-Hyp-Nml-Chg-Arg-Che) [JAL-1763] |
| ≤ 1 µM | B7 |
| ≤ 5 µM | B8 |
| ≤ 15 µM | B9 |
| ≤ 1 µM | B10 |
| ≤ 5 µM | B11 |
| ≤ 1 µM | B12 |
| ≤ 5 µM | B13 |
| ≤ 5 µM | B14 |
| ≤ 5 µM | B15 |
| ≤ 1 µM | B16 |
| ≤ 15 µM | Octanoyl-[dA]FGLKLDRI-NH2 [JAL-0738] |
| ≤ 5 µM | B17 |
| ≤ 1 µM | Octanoyl-[Sni]F[dDab](Me2)L[Hyp][NMeL]DRI-NH2 [JAL-1785] |
| ≤ 1 µM | B18 |
